# According to the DeepSol protein solubility set:
# Experiment: soluble on expression in E. coli; label from the status in PepcDB or PDB records
row,Sequence,soluble on expression in E. coli
1,MGSDKIHHHHHHMPKSVRAENISRILKRIMKSPVSRVELAEELGLTKTTVGEIAKIFLEKGIVVEEKDSPKGVGRPTKSLKISPNCAYVLGIEVTRDEIAACLIDASMNILAHEAHPLPSQSDREETLNVMYRIIDRAKDMMEKLGSKLSALTVAAPGPIDTERGIIIDPRNFPLSQIPLANLLKEKYGIEVWVENDADMGAVGEKWYTKRDDSFAWILTGKGIGAGIIIDGELYRGENGYAGEIGYTRVFNGNEYVFLEDVCNENVVLKHVLSMGFSSLAEARDSGDVRVKEYFDDIARYFSIGLLNLIHLFGISKIVIGGFFKELGENFLKKIKIEVETHLLYKHSVDMSFSKVQEPVIAFGAAVHALENYLERVTTS,soluble
2,MGSDKIHHHHHHMPLPIRDLYTFFVVARAGAMQAAAHELGVTPGAISQRIRSIEDRYGKRLFVRSRDGVSLTASGKALWKEVKSAFAQIETSHNRHIGKDGKTILRISAAPTFAHSFLVSNLASFNEDHPGIRFNIETEDRLADLRSEPIDLAIRHGLGDYAGLRSEWLCAPELIVVGSPALLESQHPVKEPEDCLRFTLLPDETGLDWALWFEAHRVNAVAPSYGTAFKDGFLTVKAASRGQGLALINDIYVREELADGRLVQLLPGSWPTKFAYYAVALPETFDRPAVKAFVKWLCAACAVEQMHQK,not soluble
3,MGSDKIHHHHHHMPLSSVSRPSTQIQAQSTGKIFIIGLPRTGTTSVCVALLEQGLKVAHQGFTQQSFYQADAIADAPVFSDFKQLDGLFPGAKFVYLSRDIAPWIISMQMLLGRMLIHLDEHTGRFHPIMKRSFNHSFKLNLVTNPFDEVHLKQCYLEHQQTVEEYFTGRNDLLKININQVGSLNRLLEFIELAPQDLASSIKSAPLNFPHLNIGRNVASWDEYKHPNKVSANLSGPNKRKFFDYTLS,not soluble
4,MGSDKIHHHHHHMPQGKANPFNINTSVKNGTVAKVGSISPTSFLNSVDPNATEVDVGGEPFNQKEFLELALNDDFLKGLLLDEEGNIKPEVAGEATIQGLEQWHQNDAGLEVDDTDTLGLMFNYYLNDNVSLQFIGGIPPKVDIKGQGEILAPLSGVALSPNELVKILFPNGITLGQAVPITNLGNKPKAASVRAWTPAIEAQYQFGKSGVNKFRPYLGVGLMYAHFNDIKLNDEIRSDLISAGHMIQNVLDGKAGAALDRKESSGNMVVKVDADDAIAPIFTAGFTYDFNDSWYTVASVSYAKLNNRTQIDVINQNTGARLIHGSTKVDIDPIITYLGVGYRF,not soluble
5,MGSDKIHHHHHHMPTKRGQIRHDPSSKKATTMDLNRRPVASLWIGESLQYLNQLCLKSHLRHGHPVTLYCTDKVTNAPEGVVVKPATDIMDIPMNIVEQTSASFLSNVFRYKMIQQTGAIWIDCDAFCHAPFPDEWEHIYAGHGMRGALNCGVVGIPQQGELMDQLLDYYDNLPDYPPWWNPRQRKRMDRQDSNLPLAVRIYKTERTAFGPQAFTHFARETGDIDRAMTSDVLYPVPFQLNDIFYDPHGRVEGWFSENTRSVHLYTNGTKPWWRKNPPLENSYAWRMCQEVGITPEDALE,not soluble
6,MGSDKIHHHHHHMPYDEILPIETLVRPKVSDFREHYLEKERPVKIARALDAWPAMQKWSLDYFENRFGDETIGVESFQPDERGPGNNSPQGYVKHLRFQELKLKELIRILRTKPDHMYYMASHPFRKSFPNLRADLAPHPYVQGHIEHIPGAHMDSYLWIGPAGTHTPIHTDPMPNFLTQIVGRKMVYLFPPDQASKNLYIGQFERETFSPVDLEKPDLERYPNYRHCTPYRAIIEPGETLHIPRNWGHCVISMDISISISTFFITYPQLFRLVPEFFTQYVKRAFEGWRWKGMENERAGLNPPPR,not soluble
7,MGSDKIHHHHHHMQATDIATQQALAAALGVNRSAVTQAKNRDAIPQKWILQLARAYHLAPDWLEFGKGRQHQPPTSLHDPETVLVPRVKAVLSAGGGSLDVSGGVVENLPFRYDWLARRGHPAHMVLMNVTGDSMEPGIRHGDTLLIDQSHVTAQTGGVYAFGYEDSILVKRFGRDADAILLLSDNTAYAPIRIRGDEADLLHVIGKIVWLCRAVQ,not soluble
8,MGSDKIHHHHHHMQCMIDAMRSIVSLISHATVALAGSLAVAGCSLSPQPDHDTAATTPERLEARIHKVHRFDPQAFTQGLELDGDRLLVSTGFYGESGMFSMEVGNAPQQRTPLDPELFGEGITKTGDHIWQLTWRDGIAFKRDATTFQQLGTVSYEGEGWGLCHFDDRVIMSNGSDELIIRDPESFDERSRIRVTNQGNGVSNLNELECVPNDPATGKDTIYANVFLSTDIMRIDATTGAVTGIIDASSIPNNAVADTNNVLNGIAWIPSSDRFYITGKRWPDLYEVTFVSKMSNHGQS,not soluble
9,MGSDKIHHHHHHMQDKVIPSLSAAIAKEVERRTQGVDWCETEIAGLDFYRQSAPTSCSVCVVEPSIALVVQGAKAMTLGEQTFRYDPSRFLITSLDLPAKMQVLEASEEAPYLGVVIKLDLAVMSDLMLQTPLTMQKETASDQGMILGATTPKLLGAISRLVNLLDEPESIAVLAPLIKREIYWRVLMSEQGARLRQIVSAGSHGLRIARTIEWLKVHYDQHLSVDSLADMARMSKSTFHHHFRRLTSMSPLQYQKRLRLLEARRLMLGEDIDASAAAYRVGYESPSQFSREYSRLFGASPKKDVATQWQ,not soluble
10,MGSDKIHHHHHHMQDNLIEIRDLRVAFNGHEVVHGISLDIRRGECLALVGESGSGKSVTAHSILRLLPPKNVSTQGSIRYDGLDLVTASDKQLRSLRGNRVAMIFQEPMSSLNPLHTVEKQIGEILVTHKGLKGKAALSRTLELLELVGIREPLLRLKAYPHQLSGGQRQRVMIAMALANEPDLLIADEPTTALDVTVQVKILELLKSLQQRLNMSLLLISHDLNLVRRIAQRVCVMREGEIVEQADCQALFDNPQHPYSRLLINAEPDGEPVPSTHSNTLLSVQDLKVWFPLGKAWFQREQQYVKAVDGVSFELLKGKTLGIVGESGSGKSTLGQAILRLVDSEGSIRFGTKELSLHSQHLMRPLRRQLQVVFQDPFGSLSPRMTVEQIIAEGLVTHKIGTPKEREQTVIRVLQEVGLDPATRHRYPHEFSGGQRQRISIARALVLEPDLILLDEPTSALDRTVQKQIVALLRDLQIRHGLTYLFISHDLAVVHALAHDLIVIKDGKVVEQGPSREIFAAPQQAYTQELLRSSGLVFA,not soluble
11,MGSDKIHHHHHHMQFLKVYSVFGEEVVGCHVRIENLSVACSVVSAGGTHPSEKCVCNHEFSSVSLHQKKHPHLEKLLETSRPIKLDSSSKVLILSDLHMGNGGRRDEFRRNSELVRSMLQDYYLPGGYSLVLNGDIEELFKFSVEDITKVWGHIYDLFLQFEKNGFFWKTYGNHDSDLFEERNYPLSKHLLESIRFQYGDEVMLLFHGHQASILLWETYPLVSRAVVLFLRYVAKPIGIRNFSTAYNSRRRFAIEKSIYEFSNQAKIVSIIGHTHRPLFESLSKVDHLKYKIEELCRQYPSALPEERLAIQERIGELKAMLDACFTEGKKIGLRSGRYNNIAIPSVFNSGCAIGKRGVTALEIDGDRIRLVYWFKEKQGRRFVSDRNSEPEQLGDTGFYRIVLNEDHLDYVFSRIRLLA,not soluble
12,MGSDKIHHHHHHMQGIQQSLPLAVVRGEPVRELPADLFIPPEALEVFLEAFEGPLDLLLYLIRKQKLDVIELPLTLIAAQYLEYIRLLTDARIELAADYLVMAATLAEIKSRLLLPKMAVEDDEEEDPRVRLIKQLKAYESIREAAFKLDELPRLERDVHQARAQAAPGLKPEVIPPDVSLKELALAFAEVLKRASAFEHHQVKKEVLSTRERMSEILAKLDHEHFTPFTALFSPEEGRGGVVVSFLALMELVKETLVELYQAEPLSGIYVKAT,not soluble
13,MGSDKIHHHHHHMQKLQTVNAETLLYEPLEKPSFVVDSLIPTGLSLFCGSQKIGKSWLMLKLCLCVSQGIPLWDMPTMEGDVLYLCLEDTFCRIQDRLFRLTDEASGRLHFAVASCKLSDGLIVQLEDYLKDYPDSRLIVIDTLQKVRTASKDNAYASDYGDISLIKDFADRHSLAVIVVHHIRKQNDSDVFNKVSGTTGLTGSADATFVLEKEKRASDTAKLYVTGRDTPYQEYTLRFRDCRWELVERKTQEQLAKETIPDVLFRLVDFMRDKEEWIGTATELLAAMGETETIPTVITKWLNEYRTTFLSENRICYQYSRRKDGRRIALARRAGDSGDGGDSDIRIPPCYCH,not soluble
14,MGSDKIHHHHHHMQPTIDQKKNPAIGNQRVTKRRKTIAQGLIQEGIELEIIQSWLFAIAQMWEVGHIPPILRGISHKSQVEALFRISQIGETIQKVHEKLAGEYYQDWVKSLNRAGLHTPSEIISAITEIQQVVKPEAIDTTKQLLNKLELEIIGMKDGDFFPTPKPLCQRLVQLADIKPNWQILEPSAGSGNIAEYITNTYPNVQLEVVEINYDLRQILELKGFNLVGKNFLEFNPSHLYNACIMNPPFCELVQHIYQAWKLLITGGVLVSVIPESVFFNRKYKTFKNWLLANNSYVEMVDKDAFLSSNNPTNVATRIIKLIKP,not soluble
15,MGSDKIHHHHHHMQQFPRLARVGLGFRRELIPALKSGVPATIDFFEIAPENWIDLGGGAARDLLFFTERYPFVCHGLSLSIGGPAPLDEILLQKIRQFLDQHRVLLYTEHLSYCSDDGHLYDLLPIPFTEEAVKYVAERVRRTQDILERRIALENASFYVASPISDMSELDFIRAVLLEADCDLHLDVNNVYVNSINHDYDPVDFIRALPSDRIVYMHMAGHHKEAENLIIDTHGADVIDPVWSLLDQTYGMHGVAPTLLERDFNIPPLEQLMREVLHIALIQAQHADSGDASAT,not soluble
16,MGSDKIHHHHHHMQRARAEQRGRDLVIHLDRPLNQDHLETVSGGQGEFYVDFEVADPRKASVQQRRLFFALLHDIETYFVVPSEFLKSMFYTQYEFYTAGKSISLSDATESSVSDANTLLDLVIDFMFEWRVPFKKGYELLPKEEQYFIYQCCRHRVCIVCGEHADIHHVDVVGRTNRNKIDHSQRHVMALCRAHHSEIESIGSAKFAAKYHVPVTGIKLKIEDLQKLGIRGNYGGD,not soluble
17,MGSDKIHHHHHHMQRLMNNIMKVENFLAQKSINYDKIDRFLMFRMYEKYKKYFKNIPIIQLIGTNGKGSTGRYLTQLLENLNYKIGHYTSPHIFSFNERFYLDGKIANDEELEQAHIRLEEIFKQDLQKLSYFEYATFLAMILFQKCDFIVLEAGVGGEYDATSIFERRMSIFTRIGFDHIQILGNSLEDIARTKLKVMAPIALISDEQEQNVLNLAKKIAFLKKANLQVSSLNPFLKEKFEIYCKKFVLPYFLKHNLKLALKACEILTSQEKTLEALKKLQELNLQGRCQEISPNFFVDVGHNPMAAKAMLDKFQGEKINLIYNAYLDKDIFQILNTLKPIIDTIQIYKYKSAERKLADDEIYSIASKLGMQCKEFVKLEENKKNLVFGSFMLVENFLKEWCGKK,not soluble
18,MGSDKIHHHHHHMQSFDVVIAGGGMVGLALACGLQGSGLRIAVLEKQAAEPQTLGKGHALRVSAINAASECLLRHIGVWENLVAQRVSPYNDMQVWDKDSFGKISFSGEEFGFSHLGHIIENPVIQQVLWQRASQLSDITLLSPTSLKQVAWGENEAFITLQDDSMLTARLVVGADGAHSWLRQHADIPLTFWDYGHHALVANIRTEHPHQSVARQAFHGDGILAFLPLDDPHLCSIVWSLSPEQALVMQSLPVEEFNRQVAMAFDMRLGLCELESERQTFPLMGRYARSFAAHRLVLVGDAAHTIHPLAGQGVNLGFMDVAELIAELKRLQTQGKDIGQHLYLRRYERRRKHSAAVMLASMQGFRELFDGDNPAKKLLRDVGLVLADKLPGIKPTLVRQAMGLHDLPDWLSAGK,not soluble
19,MGSDKIHHHHHHMQSKSDIQRLLTIMERLRDPQTGCPWDKAQSYQTIVPFTLEEAFEVADTIERGALDELPGELGDLLFQVIFYCQLGKEQGRFDFDQVVEKICTKLTERHPHVFGEMTQASSESVRETWESIKAKERKGRSLHSVLDDIPRSLPALTRAAKVQRRVATVGFDWNDLGPVVAKIHEEIDEVMVEVAAQDRDKMEDELGDLLFAVVNLARHLKLDPEQALRRATNKFEHRFRGVEALAAQSGKAMQEHSLTELDAYWEQVKRNDPLKG,not soluble
